Results from the supplement of paper PMC10567573.

B1: BTBD1 (parent)
chain: TSAEIELPDVEPAAFLALLRFLYS

Variants of: B1
Assay: protein stability index of a GFP-peptide fusion (GPS, HEK-293T) (PSI 1-6); higher = more stable
Details: c terminus: a fixed tail appended
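Further: lentivirally expressed fusions sorted by FACS into six bins by GFP to DsRed ratio, PSI derived from sequencing read proportions per bin multiplied by bin number.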

| Variant | protein stability index |
| --- | --- |
| TSAEIELPDVGPAAFLALLRFLYS | 2.44 |
| TSAEIELPDVNPAAFLALLRFLYS | 2.15 |
| TSAEIELPDVWPAAFLALLRFLYS | 1.69 |
| TSAEIELPDVPPAAFLALLRFLYS | 1.98 |
| TSAEIELPDVQPAAFLALLRFLYS | 1.56 |
| TSHEIELPDVEPAAFLALLRFLYS | 1.8 |
| TSPEIELPDVEPAAFLALLRFLYS | 2.12 |
| TSAEIELPDSEPAAFLALLRFLYS | 2.78 |
| TSAEIELPDQEPAAFLALLRFLYS | 2.22 |
| TSAEIELPDHEPAAFLALLRFLYS | 1.65 |
| TSAEIELPDNEPAAFLALLRFLYS | 2.08 |
| TSAEIELPDTEPAAFLALLRFLYS | 2.01 |
| TSAEIELPDKEPAAFLALLRFLYS | 1.69 |
| TSAEIELPDVEPAAFLALLRFYYS | 1.83 |
| TSAEIELPDVEPAAFLALLRFPYS | 2.26 |
| TSAEIELPDVEPAAFLALLRFCYS | 1.64 |
| TSAEIELPDVEPAAFMALLRFLYS | 1.8 |
| THAEIELPDVEPAAFLALLRFLYS | 1.82 |
| TKAEIELPDVEPAAFLALLRFLYS | 2.39 |
| TSAEHELPDVEPAAFLALLRFLYS | 1.93 |
| TSAEWELPDVEPAAFLALLRFLYS | 2 |
| TSAEFELPDVEPAAFLALLRFLYS | 1.78 |
| TSAENELPDVEPAAFLALLRFLYS | 2.14 |
| TSAELELPDVEPAAFLALLRFLYS | 1.75 |

| Variant | protein stability index |
| --- | --- |
| TSAEKELPDVEPAAFLALLRFLYS | 2.94 |
| TSAEIELPDVEPAAFLPLLRFLYS | 1.75 |
| TSAEIELPDVEPAAFLCLLRFLYS | 1.53 |
| TSAEIELPDVEPHAFLALLRFLYS | 2.16 |
| TSAEIELPDVEPIAFLALLRFLYS | 1.8 |
| TSAEIELPDVEPDAFLALLRFLYS | 2.02 |
| TSAEIELPDVEPCAFLALLRFLYS | 1.88 |
| TSAEIELPDVEPGAFLALLRFLYS | 1.77 |
| TSAEIELPDVEIAAFLALLRFLYS | 2.24 |
| TSAEIELPDVEEAAFLALLRFLYS | 2.08 |
| TSAEIELPDVERAAFLALLRFLYS | 1.93 |
| TSAEIELPDVEMAAFLALLRFLYS | 1.46 |
| TSAEIELPDVEHAAFLALLRFLYS | 2.15 |
| TSAEIELPDVEKAAFLALLRFLYS | 1.61 |
| TSAEIELPDVEPAAWLALLRFLYS | 2.89 |
| TSAEIELPDVEPAACLALLRFLYS | 2.3 |
| TSAEIELPDVEPAAMLALLRFLYS | 1.43 |
| TSAEIELPDVEPAADLALLRFLYS | 2.73 |
| TSAEIELPDVEPAAILALLRFLYS | 1.95 |
| TSAEIELPDVEPAAGLALLRFLYS | 2.23 |
| TSAEIEHPDVEPAAFLALLRFLYS | 2.22 |
| TSAEIERPDVEPAAFLALLRFLYS | 2.28 |
| TSAEIELPDVEPAAFLALPRFLYS | 2.11 |
| TSAEIELPDVEPAAFLALERFLYS | 2.31 |

| Variant | protein stability index |
| --- | --- |
| TSAEIELPDVEPAAFLALFRFLYS | 1.58 |
| TSAEIELPDVEPAAFLALSRFLYS | 1.69 |
| TSAEIELPDVEPAAFLALYRFLYS | 2.49 |
| TSAEIELPDVEPAAFLALDRFLYS | 3.54 |
| TSAEIELPDVEPAAFLALRRFLYS | 1.84 |
| TSAEIELPHVEPAAFLALLRFLYS | 2 |
| TSAEIELPYVEPAAFLALLRFLYS | 1.33 |
| TSAEIELPRVEPAAFLALLRFLYS | 2.24 |
| TSAEIELPDVEPAAFLALLRFLNS | 1.61 |
| TSAEIELPDVEPAAFLALLRFLLS | 2.57 |
| TSAEIELPDVEPAAFLALLRFLQS | 2.21 |
| TSAEIELPDVEPAAFLALLRFLFS | 1.75 |
| TSAEIELPDVEPAAFLALLRFLRS | 2.26 |
| TSAEIELPDVEPAAFLARLRFLYS | 2.03 |
| TSAEIELPDVEPAAFLANLRFLYS | 1.57 |
| TSAEIELPDVEPAAFLAMLRFLYS | 1.72 |
| TSAEIELPDVEPAAFLAELRFLYS | 2.13 |
| TSAEIELTDVEPAAFLALLRFLYS | 1.74 |
| TSAEIELHDVEPAAFLALLRFLYS | 1.63 |
| TSAEIELIDVEPAAFLALLRFLYS | 1.62 |
| RSAEIELPDVEPAAFLALLRFLYS | 1.9 |
| ASAEIELPDVEPAAFLALLRFLYS | 2.22 |
| WSAEIELPDVEPAAFLALLRFLYS | 1.96 |
| ISAEIELPDVEPAAFLALLRFLYS | 1.65 |

| Variant | protein stability index |
| --- | --- |
| TSAEIELPDVEPAKFLALLRFLYS | 1.63 |
| TSAEIELPDVEPAFFLALLRFLYS | 1.91 |
| TSAEIELPDVEPAEFLALLRFLYS | 1.66 |
| TSAEIELPDVEPAVFLALLRFLYS | 2.28 |
| TSAEIELPDVEPAYFLALLRFLYS | 1.8 |
| TSAEIELPDVEPAIFLALLRFLYS | 1.72 |
| TSAEIELPDVEPACFLALLRFLYS | 1.84 |
| TSAEIELPDVEPAAFLALLRFLYG | 2.86 |
| TSAEIELPDVEPAAFLALLRFLYC | 2.12 |
| TSAEIELPDVEPAAFLALLRFLYM | 2.37 |
| TSAEIELPDVEPAAFLALLQFLYS | 2.05 |
| TSAEIELPDVEPAAFLALLCFLYS | 1.19 |
| TSAEIELPDVEPAAFLALLDFLYS | 1.38 |
| TSAEIELPDVEPAAFLALLKFLYS | 1.29 |
| TSAEIELPDVEPAAFLALLNFLYS | 1.71 |
| TSAEINLPDVEPAAFLALLRFLYS | 1.96 |
| TSAEIELPDVEPAAFLALLRYLYS | 1.61 |
| TSAEIELPDVEPAAFLALLRPLYS | 1.8 |
| TSAEIELPDVEPAAFLALLRILYS | 2.25 |
| TSAEIELPDVEPAAFLALLRDLYS | 1.85 |
| TSARIELPDVEPAAFLALLRFLYS | 1.59 |
| TSAFIELPDVEPAAFLALLRFLYS | 2.24 |
